The chains are these.
B1: OR4K15 (parent)
chain: GUUAACGGUCAUAGGCCAUGGAAACUAGGAGCACCAUUUCGCUGCCAGUGAAGAAAUGAACAAAGAAAAUCUGGGCCAGGCAGGCAUCAAAAGAAAUAGUCUUGCGCUCAACCAGAAAGUCUGUAAUCAUUUUAAGGGUA

The data set covers variants of B1. The data set can be described thus: self-cleavage, relative activity (ratio to wild type); higher = more cleavage; in vitro, sequencing; the parent is a self-cleaving ribozyme.
On to A18U C85U, for which the self-cleavage came to 1.37.
In the case of A18U A117G, the self-cleavage is 1.72.
The figure for U19C C105U is 0.15; for U19C C105G it is 0.04; for U19C C46A it is 1.64.
Take C16G A47U: the self-cleavage came out at 0.8.
In the case of A18U A95G, the self-cleavage was found to be 1.96.
Turning to C16A U39A, the self-cleavage amounted to 1.23.
The figure for A18U U133C is 2.02; for C16U A23U it is 1.24.
Consider A18G U57G, for which the self-cleavage is 1.21.
The same measure for A18U U43C: 1.42; for A18U U43G: 1.5; for A18G A95G: 1.38.
The same measure for U19A A68G: 1.64; for U19A U70C: 1.06; for C16U A55G: 1.63.
On to A18G G44A, for which the self-cleavage came to 1.66.
The figure for U19C A140G is 0.62; for A18U A140G it is 1.49; for A18U A140U it is 1.33.
In the case of U19A U43C, the self-cleavage was determined as 1.77.
C17U A94G: the self-cleavage turned out to be 1.32.
The same measure for A18U A68G: 0.74; for A18U A68U: 2.28; for A18G U131C: 1.63.
For the variant A18C A52G, the self-cleavage turned out to be 1.51.
With A18G A78G, the self-cleavage was 0.33.
The figure for A18U A114G is 0.35.
The figure for U19A U72A is 0.21; for U19C A89U it is 1.15.
For U19C A89G, the self-cleavage amounted to 1.5.
With U19C A24G, the self-cleavage was 1.28.
A18G A30U: the self-cleavage is 1.01.
Consider A18G A30G, for which the self-cleavage turned out to be 0.88.
The same measure for A18C U57C: 0; for U19C C34U: 0.91.
With C16G A89G, the self-cleavage turned out to be 0.74.
The same measure for C16U C85U: 1.15.
On to A18U U132C, for which the self-cleavage is 1.75.
As for C17A A78G, the self-cleavage stood at 0.1.
The same measure for C16A A22G: 1.29; for C17U U100A: 0.96.
The same measure for A18G U38G: 1.56.
The same measure for U19A G31A: 1.02; for C17U A24U: 1.29.
For the variant U19C A126U, the self-cleavage stood at 0.65.
The same measure for A18C A96U: 0.98; for A18G A64U: 1.92; for A18G A64G: 1.11.
The figure for A18U C88U is 0.43.
For the variant U19C A114C, the self-cleavage came to 0.06.
As to A18U C101A, the self-cleavage was found to be 0.05.
For A18G A134U, the self-cleavage amounted to 1.88.
Regarding G15U A118G, the self-cleavage was determined as 1.88.
Consider A18U A22G, for which the self-cleavage is 1.12.
On to A18U A135G, for which the self-cleavage was determined as 1.36.
Take C17A A56G: the self-cleavage was 2.2.
The figure for U19A A129G is 0.05; for A18U A118G it is 0.6; for A18C U108C it is 0.01.
In the case of U19C A78U, the self-cleavage was determined as 0.28.
The figure for A18U A110C is 0.23.
The figure for C16U A96G is 1.27; for C17A A118G it is 0.97; for A18U U108A it is 0.02.
The same measure for U19C A118G: 1.27.
With A18U A52G, the self-cleavage came out at 1.7.
The same measure for U19A U120C: 0.79.
For the variant A18C U39A, the self-cleavage was found to be 1.48.
Turning to U19C A69C, the self-cleavage was found to be 1.71.
For the variant U19C A69U, the self-cleavage turned out to be 1.62.
The figure for U19C A69G is 1.05; for U19C C45U it is 0.47; for A18G G48A it is 1.81.
The same measure for C16U A66U: 1.27; for A18U G74A: 0.22.
The same measure for A18U U127C: 0.91; for C17A A24G: 1.64; for A18G A98G: 0.59.
On to A18G G138A, for which the self-cleavage was 1.27.
Take A18G A66G: the self-cleavage is 1.81.
The figure for G15C U108C is 0.03.
The figure for A18U A78U is 0.45; for A18U A54G it is 1.28; for A18C U130C it is 0.96.
The figure for A18U A90U is 1.13; for C17U A95G it is 2.06; for A18U A51U it is 1.24.
As to A18U A51G, the self-cleavage came out at 1.4.
The same measure for U19A A110C: 0.3.
The figure for A18C A95G is 2.19; for U19C C85U it is 0.88; for A18G A126C it is 0.48.
As for A18G A126U, the self-cleavage was determined as 0.44.
Regarding U19C A68G, the self-cleavage stood at 1.24.
The figure for U19C A68U is 1.36; for A18G U87G it is 0.98; for U19A U97G it is 1.84.
Regarding G15U U38A, the self-cleavage is 1.8.
The figure for U19C A117G is 1.58; for U19C G80C it is 0.1.
As to U19A A51G, the self-cleavage is 1.36.
The figure for U19A A51U is 2.15; for C17U U131C it is 0.73; for C17U U131A it is 0.93.
With G15U U87A, the self-cleavage came out at 1.44.
The same measure for A18G G41A: 1.53; for U19A U103C: 0.75.
The same measure for U19C A92U: 1.93; for U19A U39C: 0.99; for A18G G104A: 0.02.
The figure for U19C A47G is 0.41; for U19A U131A it is 0.78; for U19A U38C it is 1.98.
U19C C32U: the self-cleavage amounted to 1.32.
The figure for U19C C32G is 1.51; for A18G A114G it is 0.77; for A18G A114U it is 0.14.
For A18U G41A, the self-cleavage came out at 1.09.
The figure for C17A A135C is 1.23; for U19A U49A it is 1.05.
On to U19A A82G, for which the self-cleavage came out at 0.68.
The figure for G15U A56G is 1.89; for U19A A67G it is 1.84; for U19C A86G it is 1.37.
Turning to A18U A64G, the self-cleavage was determined as 0.9.
C16G A68G: the self-cleavage came out at 0.69.
With A18G U122C, the self-cleavage turned out to be 1.32.
For A18G A140G, the self-cleavage came out at 0.55.
For the variant A18U U70C, the self-cleavage is 1.04.
The same measure for A18G U39C: 1.77; for A18G U39A: 1.96.
The figure for A18U A24G is 1.31; for C17U U102C it is 0.9; for A18U A33C it is 1.61.
The same measure for A18U A33G: 0.61.
For the variant G15U A82U, the self-cleavage came to 0.23.
For U19A U102A, the self-cleavage turned out to be 0.97.
The figure for A18U A82G is 0.46; for A18U A82U it is 0.16; for A18G A47U it is 1.1.
The same measure for C17U: 0.8.
On to C17A, for which the self-cleavage was 1.46.
In the case of A18G U72C, the self-cleavage worked out at 0.38.
As for A18G U72A, the self-cleavage came to 0.37.
The figure for A18U U122A is 0.64; for A18U U122C it is 0.87; for A18C U103C it is 0.86.
Take C16A A56C: the self-cleavage came out at 0.52.
The same measure for C17U A66G: 1.68; for A18U A129G: 1.24.
The figure for A18U A89C is 0.9.
A18U A89G: the self-cleavage came out at 1.59.
The same measure for A18C A140G: 0.94; for A18G U43A: 1.23; for A18G U43C: 1.52.
The same measure for A18G C71U: 0.22.
On to U19A A92U, for which the self-cleavage was found to be 2.13.
The figure for U19A A92G is 1.47; for A18G U37C it is 1.04.
The same measure for U19A A59U: 1.72; for A18U A55C: 1.22.
Regarding G15U U72G, the self-cleavage amounted to 0.36.
Consider C16G U124A, for which the self-cleavage was determined as 0.77.
Consider A18U A94G, for which the self-cleavage turned out to be 1.06.
As to C17A U19C, the self-cleavage turned out to be 0.87.

Values taken from the RNAGym collection of RNA variant scans (doi:10.7554/elife.90254).
